In patent publication US20230310629A1 (Merck KGaA, published 2023):
Where no end group is shown, it is not given here.

T1: biotinylated synthetic VNTR peptide of MUC1 (APDTRPAPGSTAPPAC-biotin) (human)
T1 construct: also called human MUC1-VNTR peptide
T1 peptide: APDTRPAPGSTAPPAC-biotin

T2: fragment of human MUC1 immunodominant core peptide (APDTRPAPGSTAPPA) (human)
T2 construct: also called MUC1 peptide; human MUC1 truncated peptide
T2 peptide: APDTRPAPGSTAPPA

B1: 1993-H02 with an HT186-D11 light chain (anti-MUC1 antibody H02) (antibody, V domains shown)
VH: QMQLVQSEAELKKPGASVKVSCKASGYSFTSHFMHWVRQAPGQGLEWMGWIDPVTGGTKYAQNFQGWVTMTRDTSIRTAYLELSRLRSDDTAMYYCAREARADRGQFDKWGQGTLVTVAS
VL: QSVLTQPPSVSVAPGKTARITCGGNNIGSKSVHWYQQKPGQAPALVIYYGSNRPSGIPERFSGSNSGNTATLTISRVEAGDEADYYCQVWDSSSDWVFGGGTKLTVL
notes: One molecule is used here for both experiments
B2: H02-scFv, the MUC1-binding arm of Molecule 1 (scFv)
scFv: QMQLVQSEAELKKPGASVKVSCKASGYSFTSHFMHWVRQAPGQGLEWMGWIDPVTGGTKYAQNFQGWVTMTRDTSIRTAYLELSRLRSDDTAMYYCAREARADRGQFDKWGQGTLVTVASGGGGSGGGGSGGGGSQSVLTQPPSVSVAPGKTARITCGGNNIGSKSVHWYQQKPGQAPALVIYYGSNRPSGIPERFSGSNSGNTATLTISRVEAGDEADYYCQVWDSSSDWVFGGGTKLTVL

Experiments:
[1] = target: T1, biotinylated synthetic VNTR peptide of …; test: Biacore, human MUC1-VNTR; kd1
[2] = target: T1, biotinylated synthetic VNTR peptide of …; test: Biacore, human MUC1-VNTR; ka1
[3] = target: T1, biotinylated synthetic VNTR peptide of …; test: Biacore, human MUC1-VNTR peptide
[4] = target: T2, fragment of human MUC1 immunodominant …; test: co-crystallisation, X-ray structure

| Binder | koff [1] | kon [2] | Kd [3] | binding result [4] |
| --- | --- | --- | --- | --- |
| B1 | 0.0017 s⁻¹ | 126000 M⁻¹ s⁻¹ | 0.901 nM | – |
| B2 | – | – | – | binds |
